Publication PMC5715112 (2017)

B1: VH59 fused to the VP16 activation domain (pEF-VP16, CHO cells) / GAL4 DNA binding domain (DBD)-LEDGF IBD fusion (pM1, CHO cells) [not stated] (parent complex)
chain 1: EVQLLESGGGLVQPGGSLRLSCAASGFTFSTFSMNWVRQAPGKGLEWVSYISRTSKTIYYADSVKGRFTISRDNSKNTLYLQMNSLRAEDTAVYYCARGGWALGDEIPSSFLEFDYWGQGTLVTVS
chain 2: ETSMDSRLQRIHAEIKNSLKIDNLDVNRCIEALDELASLQVTMQQAQKHTEMITTLKKIRRFKVSQVIMEKSTMLYNKFKNMFLVGE

Variants of: B1
Assay: mammalian two-hybrid luciferase reporter assay in CHO cells; 48 h after transfection; Firefly luciferase normalised to Renilla; read off a plot

Variant | response
chain 2 I21A | ~0.05
chain 2 K20A | ~0.71
chain 2 K63A | ~0.35
chain 2 D22A | ~0.79
chain 2 F62A | ~0.05
chain 2 K58A | ~0.09
chain 2 L24A | ~0.02
chain 2 V64A | ~0.12
chain 2 R61A | ~2
chain 2 L19A | ~0.08

Variants of: B1
Assay: mammalian two-hybrid luciferase reporter assay in CHO cells; 48 h after transfection; Firefly/Renilla luciferase; n = 3; read off a plot

Variant | response
chain 1 P108A | ~0.04
chain 1 L112A | ~0.05
chain 1 F111A | ~0.04
chain 1 S109A | ~0.46
chain 1 S110A | ~0.04

Variants of: B1
Assay: as above
Remark: another data set of the same source

Variant | response
chain 1 L45A | ~1.2
chain 1 Y116A | ~0.92
chain 1 D115A | ~0.04
chain 1 Y95A | ~0.04
chain 1 W117A | ~0.04
